Patent publication US20040229237

System: mouse MIST (Mast Cell-specific Immunoreceptor Signal Transducer)

With Lyn kinase the “tyrosine phosphorylation of MIST” value was “MIST was evidently phosphorylated by Lyn kinase among tyrosine kinases present in the mast cell”.
